Where no end group is shown, it is not given here. The star is where a group is joined. Biotin = O=C1N[C@H]2[C@H](CS[C@H]2CCCCC(=O)*)N1; Myristoyl = CCCCCCCCCCCCCC(=O)*
Legend:
Test in all cases: BLI; Octet Red96, 96 well plates, PBS-T buffer (1X PBS, 0.05% tween-20); 120 µM biotinylated peptide attached to the sensor; analytes (SIRT6/SIRT6 mutants) from 0.18 to 5.5 µM; also run with cofactors (5 mM Mg2+, Zn2+, ATP, ADP, AMP, cAMP, NAD+)
Details in all cases: both partners purified
[1] = target: T1, Wild-type SIRT6 (Sirtuin 6) (human, UniProt Q8N6T7 1-355)
T1 construct: human SIRT6, full length (1-355aa), from pUC57-SIRT6 into pET28a; no tag cleavage is described; also called SIRT6 WT; source: E. coli ArcticExpress (DE3), purified (Ni Sepharose); not shown: His-tag, N-terminal, kept; Flag, C-terminal, kept
T1 sequence (Q8N6T7 whole entry): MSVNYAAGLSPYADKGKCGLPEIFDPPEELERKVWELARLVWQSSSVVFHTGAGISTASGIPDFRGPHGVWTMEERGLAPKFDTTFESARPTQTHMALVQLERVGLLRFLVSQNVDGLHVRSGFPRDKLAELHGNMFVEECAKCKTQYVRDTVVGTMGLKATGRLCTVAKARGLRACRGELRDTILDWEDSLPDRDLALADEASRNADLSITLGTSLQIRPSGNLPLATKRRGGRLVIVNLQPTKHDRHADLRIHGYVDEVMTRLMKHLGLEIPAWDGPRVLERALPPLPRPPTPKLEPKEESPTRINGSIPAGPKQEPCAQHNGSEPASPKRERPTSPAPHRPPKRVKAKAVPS

[2] = target: T2, SIRT6 H133Y (human, UniProt Q8N6T7 1-355, H133Y)
T2 construct: human SIRT6, full length (1-355aa), pET28a-SIRT6H133Y; also called dSIRT6; dSIRT6 (H133Y); source: E. coli ArcticExpress (DE3), purified (Ni Sepharose); not shown: His-tag, N-terminal, kept; Flag, C-terminal, kept
T2 sequence (Q8N6T7 whole entry H133Y): as the sequence (Q8N6T7 whole entry) above, with H133Y counted along it

[3] = target: T3, SIRT6 S56Y (human, UniProt Q8N6T7 1-355, S56Y)
T3 construct: human SIRT6, full length (1-355aa), pET28a-SIRT6S56Y; also called dSIRT6 variant; source: E. coli ArcticExpress (DE3), purified (Ni Sepharose); not shown: His-tag, N-terminal, kept; Flag, C-terminal, kept
T3 sequence (Q8N6T7 whole entry S56Y): as the sequence (Q8N6T7 whole entry) above, with S56Y counted along it

[4] = target: T4, SIRT6 R65A (human, UniProt Q8N6T7 1-355, R65A)
T4 construct: human SIRT6, full length (1-355aa), pET28a-SIRT6R65A; also called dSIRT6 variant; source: E. coli ArcticExpress (DE3), purified (Ni Sepharose); not shown: His-tag, N-terminal, kept; Flag, C-terminal, kept
T4 sequence (Q8N6T7 whole entry R65A): as the sequence (Q8N6T7 whole entry) above, with R65A counted along it

Kd [1]: 8.1 ± 0.96 µM | binding result [2]: binds | binding result [3]: binds | binding result [4]: binds
B1: B-H3K9^Myr-5R (biotin-KQTARK^MyrSTGGKARRRRR) (peptide)
peptide: Biotin-KQTARK(Myristoyl)STGGKARRRRR
notes: histone H3 N-terminal stretch around K9; five arginine residues added at the C-terminus so that the peptide is soluble in water; also called myristoylated peptide; source: synthetic peptide (Boster Biological Technology)
